Patent US20200087392A1 (Novartis, published 2020)

Target: T1, human β-klotho (human, UniProt Q86Z14 52-997, limits assumed)
T1 construct: Antigen of the SET assay; also called beta-klotho
T1 sequence: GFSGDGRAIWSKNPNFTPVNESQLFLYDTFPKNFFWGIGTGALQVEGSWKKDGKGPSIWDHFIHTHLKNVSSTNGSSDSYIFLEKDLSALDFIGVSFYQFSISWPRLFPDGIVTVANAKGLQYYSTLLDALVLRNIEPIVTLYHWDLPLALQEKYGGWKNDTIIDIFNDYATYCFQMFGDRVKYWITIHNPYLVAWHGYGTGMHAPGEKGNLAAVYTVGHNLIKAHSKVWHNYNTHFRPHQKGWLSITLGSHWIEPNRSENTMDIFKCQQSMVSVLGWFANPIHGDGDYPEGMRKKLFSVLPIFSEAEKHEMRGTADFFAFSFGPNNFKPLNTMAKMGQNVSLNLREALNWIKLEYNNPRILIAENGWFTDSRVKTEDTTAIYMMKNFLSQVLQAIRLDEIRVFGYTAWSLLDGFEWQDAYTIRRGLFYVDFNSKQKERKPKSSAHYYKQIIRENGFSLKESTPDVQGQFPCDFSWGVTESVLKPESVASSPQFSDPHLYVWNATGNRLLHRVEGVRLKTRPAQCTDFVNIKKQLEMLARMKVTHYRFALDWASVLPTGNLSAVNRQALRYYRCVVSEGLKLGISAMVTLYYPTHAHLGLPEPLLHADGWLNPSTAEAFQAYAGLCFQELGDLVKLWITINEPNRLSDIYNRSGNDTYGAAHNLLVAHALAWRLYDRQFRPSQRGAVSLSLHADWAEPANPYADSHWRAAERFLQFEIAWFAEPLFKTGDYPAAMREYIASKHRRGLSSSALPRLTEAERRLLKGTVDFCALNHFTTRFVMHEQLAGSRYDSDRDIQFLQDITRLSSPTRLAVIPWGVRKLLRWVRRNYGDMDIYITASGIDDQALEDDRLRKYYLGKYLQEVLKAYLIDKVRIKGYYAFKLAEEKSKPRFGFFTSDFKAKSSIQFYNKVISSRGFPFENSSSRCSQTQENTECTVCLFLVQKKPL
Assay: solution equilibrium titration (SET)

Kd: ~0.042 nM
B1: NOV001 (antibody, human IgG1, kappa, L234A L235A, V domains shown)
VH: QVQLVQSGAEVKKPGSSVKVSCKASGYTFTDYYINWVRQAPGQGLEWMGRIHPGSGNTYYNEKFQGRVTLTADKSTSTAYMELSSLRSEDTAVYYCAILLLRSYGMDDWGQGTTVTVSS
VL: DVVMTQTPLSLSVTPGQPASISCKSSQSIVHSSGNTYLEWYLQKPGQSPQLLIYKVSNRFSGVPDRFSGSGSGTDFTLKISRVEAEDVGVYYCFQGSHIPYTFGQGTKLEIKR
notes: also called IgG1 LALA version of NOV003
